Values of other authors as cited in patent US8747397B2, “Cryotreatment pellet” (CPSI Holdings LLC, priority 2009, dated 2014).

Tested on: prostate cancer cell

B1: TNF-Related Apoptosis-Inducing Ligand (protein, UniProt P50591 1-281, looked up)
Tumor necrosis factor ligand …: MAMMEVQGGPSLGQTCVLIVIFTVLLQSLCVAVTYVYFTNELKQMQDKYSKSGIACFLKEDDSYWDPNDEESMNSPCWQVKWQLRQLVRKMILRTSEETISTVQEKQQNISPLVRERGPQRVAAHITGTRGRSNTLSSPNSKNEKALGRKINSWESSRSGHSFLSNLHLRNGELVIHEKGFYYIYSQTYFRFQEEIKENTKNDKQMVQYIYKYTSYPDPILLMKSARNSCWSKDAEYGLYSIYQGGIFELKENDRIFVSVTNEHLIDMDHEASFFGAFLVG
notes: cytotoxic agent, apoptosis-inducing ligand applied in combination with freezing
In the case of B1, the cell death (sub-lethal dose applied in vitro in combination with freezing) is given as “complete prostate cancer cell death occurs” and the critical death temperature (sub-lethal dose in combination with freezing, reduced from −40° C. (freezing alone)) is given as −10 °C.
